Source: paper PMC3708871

Target: T1, Recombinant SIVmac239 Nef core domain, residues 96–237
T1 chain: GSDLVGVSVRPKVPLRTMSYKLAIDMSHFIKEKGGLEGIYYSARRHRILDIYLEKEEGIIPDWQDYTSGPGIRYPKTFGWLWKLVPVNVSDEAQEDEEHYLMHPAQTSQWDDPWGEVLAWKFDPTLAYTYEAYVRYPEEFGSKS
Assay: SPR
Settings: chain shown with the change; Nef96–237 at about 650 µM (highest concentration point), peptide on chip; parent: est. 1900; read off a plot

Row | Molecule | response [RU]
1 | MAPILYDYRKMPMAAAAAEDGDKRCK | 1100

Same assay, conditions: chain shown with the change; Nef96–237 at about 650 µM (highest concentration point), peptide on chip; read off a plot

Row | Molecule | response [RU]
2 | MASTSYDYSRVPMDDIWKEDGDKRCK | 800

Target: Dynamin 2 fused to GFP (UniProt P50570)
Assay: co-IP; 293T co-transfected with Nef constructs and Dyn2-GFP; lysates immunoprecipitated with a mAb to GFP, blots for Nef and GFP; band ratios
Settings: not given

Sequence of UniProt P50570 (P50570 whole entry, the tested form may be a part): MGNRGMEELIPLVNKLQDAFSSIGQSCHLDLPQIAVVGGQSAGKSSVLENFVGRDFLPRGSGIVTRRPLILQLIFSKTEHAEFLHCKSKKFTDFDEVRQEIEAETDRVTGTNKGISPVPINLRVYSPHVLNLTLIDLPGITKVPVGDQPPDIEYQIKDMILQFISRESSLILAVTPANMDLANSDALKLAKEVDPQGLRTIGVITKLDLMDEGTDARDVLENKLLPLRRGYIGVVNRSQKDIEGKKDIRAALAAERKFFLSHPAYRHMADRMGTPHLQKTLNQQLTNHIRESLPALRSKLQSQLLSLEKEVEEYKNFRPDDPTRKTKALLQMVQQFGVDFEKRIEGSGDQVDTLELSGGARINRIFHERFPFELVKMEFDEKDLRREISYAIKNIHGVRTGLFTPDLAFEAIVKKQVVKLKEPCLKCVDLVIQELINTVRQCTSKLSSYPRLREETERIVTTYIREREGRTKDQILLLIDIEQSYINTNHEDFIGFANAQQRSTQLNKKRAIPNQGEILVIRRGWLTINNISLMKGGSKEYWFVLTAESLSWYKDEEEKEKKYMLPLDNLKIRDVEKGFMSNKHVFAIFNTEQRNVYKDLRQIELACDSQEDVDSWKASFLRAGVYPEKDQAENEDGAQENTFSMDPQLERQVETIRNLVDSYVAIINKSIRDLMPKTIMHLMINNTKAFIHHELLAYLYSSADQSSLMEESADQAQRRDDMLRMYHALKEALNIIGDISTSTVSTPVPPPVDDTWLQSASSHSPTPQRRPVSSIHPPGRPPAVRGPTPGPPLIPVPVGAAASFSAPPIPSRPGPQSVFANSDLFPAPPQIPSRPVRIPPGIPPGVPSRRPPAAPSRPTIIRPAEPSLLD

Row | Molecule | Dyn2 binding (Nef/dynamin 2 band intensity in IP)
3 | SIVmac239 Nef, wild type (natural protein) | 1.1

Target: Rhesus macaque tetherin (BST-2), allele rBST-2.1 (rhesus macaque)
Assay: co-IP; 293T co-transfected with Nef and tetherin constructs; lysates immunoprecipitated with anti-tetherin mAb 3H4 and protein A beads, blots for Nef and tetherin; band densities by ImageJ
Settings: not given

Row | Molecule | BST2 binding (Nef/tetherin band intensity in IP)
4 | SIVmac239 Nef G2A (myristoylation site mutant) (natural protein) | 0.16
5 | SIVmac239 Nef with pair-wise alanine substitutions at positions 5–6 (natural protein) | 0.18
6 | SIVmac239 Nef with pair-wise alanine substitutions at positions 60–61 (natural protein) | 0.7
7 | SIVmac239 Nef with pair-wise alanine substitutions at positions 64–65 (natural protein) | 0.54
8 | SIVmac239 Nef with pair-wise alanine substitutions at positions 66–67 (natural protein) | 0.18
9 | SIVmac239 Nef with pair-wise alanine substitutions at positions 68–69 (natural protein) | 0.14
10 | SIVmac239 Nef with pair-wise alanine substitutions at positions 70–71 (natural protein) | 0.28
11 | SIVmac239 Nef with pair-wise alanine substitutions at positions 74–75 (natural protein) | 0.71
12 | SIVmac239 Nef with pair-wise alanine substitutions at positions 82–83 (natural protein) | 1.38
13 | SIVmac239 Nef with pair-wise alanine substitutions at positions 86–87 (natural protein) | 0.47
14 | SIVmac239 Nef with pair-wise alanine substitutions at positions 88–89 (natural protein) | 0.93
15 | SIVmac239 Nef with pair-wise alanine substitutions at positions 106–107 (natural protein) | 0.82
16 | SIVmac239 Nef with pair-wise alanine substitutions at positions 108–109 (natural protein) | 1.87
17 | SIVmac239 Nef with pair-wise alanine substitutions at positions 110–111 (natural protein) | 1.29
18 | SIVmac239 Nef with pair-wise alanine substitutions at positions 112–113 (natural protein) | 0.35
19 | SIVmac239 Nef with pair-wise alanine substitutions at positions 116–117 (natural protein) | 0.16
20 | SIVmac239 Nef with pair-wise alanine substitutions at positions 128–129 (natural protein) | 1.11
21 | SIVmac239 Nef with pair-wise alanine substitutions at positions 130–131 (natural protein) | 2.4
22 | SIVmac239 Nef with pair-wise alanine substitutions at positions 132–133 (natural protein) | 0.79
23 | SIVmac239 Nef with pair-wise alanine substitutions at positions 134–135 (natural protein) | 2.58
24 | SIVmac239 Nef with pair-wise alanine substitutions at positions 138–139 (natural protein) | 0.84
25 | SIVmac239 Nef with pair-wise alanine substitutions at positions 140–141 (natural protein) | 1.38

Row | Molecule | BST2 binding (Nef/tetherin band intensity in IP)
26 | SIVmac239 Nef with pair-wise alanine substitutions at positions 142–143 (natural protein) | 5.1
27 | SIVmac239 Nef with pair-wise alanine substitutions at positions 146–147 (natural protein) | 1.56
28 | SIVmac239 Nef with pair-wise alanine substitutions at positions 152–153 (natural protein) | 1.68
29 | SIVmac239 Nef with pair-wise alanine substitutions at positions 156–157 (natural protein) | 1.46
30 | SIVmac239 Nef with pair-wise alanine substitutions at positions 158–159 (natural protein) | 0.76
31 | SIVmac239 Nef with pair-wise alanine substitutions at positions 160–161 (natural protein) | 1.64
32 | SIVmac239 Nef with pair-wise alanine substitutions at positions 164–165 (natural protein) | 1.34
33 | SIVmac239 Nef with pair-wise alanine substitutions at positions 166–167 (natural protein) | 1.4
34 | SIVmac239 Nef with pair-wise alanine substitutions at positions 168–169 (natural protein) | 2.1
35 | SIVmac239 Nef with pair-wise alanine substitutions at positions 170–171 (natural protein) | 2.61
36 | SIVmac239 Nef with pair-wise alanine substitutions at positions 172–173 (natural protein) | 1.34
37 | SIVmac239 Nef with pair-wise alanine substitutions at positions 174–175 (natural protein) | 0.52
38 | SIVmac239 Nef with pair-wise alanine substitutions at positions 176–177 (natural protein) | 3.17
39 | SIVmac239 Nef with pair-wise alanine substitutions at positions 181–182 (natural protein) | 0.23
40 | SIVmac239 Nef with pair-wise alanine substitutions at positions 193–194 (natural protein) | 0.22
41 | SIVmac239 Nef with pair-wise alanine substitutions at positions 195–196 (natural protein) | 0.31
42 | SIVmac239 Nef with pair-wise alanine substitutions at positions 199–200 (natural protein) | 0.43
43 | SIVmac239 Nef with pair-wise alanine substitutions at positions 203–204 (natural protein) | 0.74
44 | SIVmac239 Nef with pair-wise alanine substitutions at positions 205–206 (natural protein) | 0.94
45 | SIVmac239 Nef with pair-wise alanine substitutions at positions 209–210 (natural protein) | 1.4
46 | SIVmac239 Nef, wild type (natural protein) | 1

Target: SIVmac239 Nef, wild type
Assay: co-immunoprecipitation
Settings: IP: α-BST2; parent: 0.13

Row | Molecule | other: Nef/BST2 band intensity ratio
47 | Human tetherin (BST-2) (from UniProt Q10589) insertion of D14DIWK18 from rhesus tetherin into human tetherin (hDDIWK) | 0.65

Target: Rhesus macaque tetherin (BST-2), allele rBST-2.1
Assay: co-immunoprecipitation
Settings: 293T cells co-transfected; lysates immunoprecipitated with a monoclonal antibody to tetherin; parent: 1

Row | Molecule | ratio to parent
48 | SIVmac239 Nef, wild type M66A; N67A; T68A; P69A; W70A; R71A | 0.05
49 | SIVmac239 Nef, wild type M66A; N67A; T68A; P69A; W70A; R71A; I117A; L174A; W175A; N181A; V182A | 0.07

Target: Peptide of the cytoplasmic domain of rhesus macaque tetherin, residues 1–26, biotinylated (rhesus macaque)
Assay: SPR; BIAcore 3000, 25°C, PBS with 5 mM DTT; biotinylated tetherin peptides captured (3,000 RU) on neutravidin-coated CM5 chip, Nef proteins flowed at 5 µl/min; equilibrium analysis, apparent Kd
Settings: not given

Row | Molecule | Kd [µM]
50 | Recombinant SIVmac239 Nef core domain, residues 96–237 (domain or fragment) | 401
